Experimental data as given in article PMC11952106.

Assays:
[1] = molecular target: act-EaCDCL^S (proteolytically activated short CDC-like protein of Elizabethkingia anophelis) (Elizabethkingia anophelis); assay: cryo-EM structure; prepore-like oligomer stacked on the inserted pore; act-EaCDCL^L (3.95 uM) then act-EaCDCL^S (7.9 uM) on POPC liposomes at 37°C; focused refinement, C30 symmetry, 3.13 Å
[2] = molecular target: act-EaCDCL^S (proteolytically activated short CDC-like protein of Elizabethkingia anophelis) (Elizabethkingia anophelis); assay: cryo-EM structure; membrane-inserted pore on POPC liposomes; act-EaCDCL^L (3.95 uM) then act-EaCDCL^S (7.9 uM) at 37°C; focused refinement, C30 symmetry, 2.87 Å

“act-EaCDCL^S (proteolytically activated short CDC-like protein of Elizabethkingia anophelis) (domain or fragment)” gave a stoichiometry N [1] of 30 subunits and a stoichiometry N [2] of 30 subunits.
